# Results: the supplement of paper PMC7125110
# ± gives the standard error. Fewer inactive variants are shown than the library holds.
# B1: glmS ribozyme (parent)
# chain: AUAAAAGCGCCAGAACUACAGAAAUGUAGUUGACGAGGAGGAGGUUUAUCGAAUUUUCGGCGGAUGCCUCCAAA
# Experiments:
# Conditions in all cases: with glucosamine-6-phosphate
# glucosamine-6-phosphate [1] = variants of: B1; test: self-cleavage kobs at 40 uM GlcN6P; higher = faster cleavage; RNA array
# Summary of the method: (§1)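 Glucosamine-6-phosphate (40 μM to 10 mM) in HEPES/KCl/Mg(OAc)2 buffer was flowed over sequenced MiSeq chips, and tiles were imaged over ~14 h. Barcoded ribozyme variants there had been transcribed in situ by E. coli RNA polymerase and were tracked through a hybridised Cy3 probe at 37 °C. One- or two-exponential decay fits to per-tile medians, normalised to baseline and to non-cleaving reference variants, gave kobs. kcat and KM came from weighted Michaelis–Menten fits across concentrations.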
# glucosamine-6-phosphate [2] = variants of: B1; test: self-cleavage kobs at 160 uM GlcN6P; higher = faster cleavage; RNA array
# Summary of the method: as §1
# glucosamine-6-phosphate [3] = variants of: B1; test: self-cleavage kobs at 640 uM GlcN6P; higher = faster cleavage; RNA array
# Summary of the method: as §1
# glucosamine-6-phosphate [4] = variants of: B1; test: self-cleavage kobs at 2500 uM GlcN6P; higher = faster cleavage; RNA array
# Summary of the method: as §1
# glucosamine-6-phosphate [5] = variants of: B1; test: self-cleavage kobs at 10000 uM GlcN6P; higher = faster cleavage; RNA array
# Summary of the method: as §1
Variant,self-cleavage kobs at 40 uM GlcN6P (glucosamine-6-phosphate [1]) [s⁻¹],self-cleavage kobs at 160 uM GlcN6P (glucosamine-6-phosphate [2]) [s⁻¹],self-cleavage kobs at 640 uM GlcN6P (glucosamine-6-phosphate [3]) [s⁻¹],self-cleavage kobs at 2500 uM GlcN6P (glucosamine-6-phosphate [4]) [s⁻¹],self-cleavage kobs at 10000 uM GlcN6P (glucosamine-6-phosphate [5]) [s⁻¹]
A53C C58A G60U,< 1e-05,,,,
A15C U57C G62C,,< 1e-05,< 1e-05,,
C16G G59C A64C,,< 1e-05,,,
G7U G43U C68U,,< 1e-05,< 1e-05,< 1e-05,< 1e-05
C11G C16G,< 1e-05,< 1e-05,,< 1e-05,< 1e-05
A6U G35C G62A,< 1e-05,< 1e-05,< 1e-05,< 1e-05,< 1e-05
C10A C34A G37A U46C C67G,,< 1e-05,,,
C11U A15G C34U U57C C71A,,< 1e-05,< 1e-05,< 1e-05,
G32C U65A C67A,0.000151 ± 3.6e-05,,0.000426 ± 0.0001,,0.00023 ± 5.9e-05
G13A A39G C68A,,< 1e-05,,,
A33U G63C,,< 1e-05,< 1e-05,< 1e-05,< 1e-05
A15G U45A U56G A64C C70A,,< 1e-05,< 1e-05,< 1e-05,
G29C C58U C71U,< 1e-05,,,,5.59e-05 ± 1.7e-05
A6U G7U G35U U54A,,< 1e-05,< 1e-05,< 1e-05,
G44A C68G,< 1e-05,< 1e-05,< 1e-05,< 1e-05,< 1e-05
G37C G51U,,< 1e-05,,,< 1e-05
C50A G63C,< 1e-05,< 1e-05,,,< 1e-05
A6G A64G C67G,,< 1e-05,< 1e-05,< 1e-05,
A39U G51U G62U C71A,,< 1e-05,,< 1e-05,
C10U G51A U55C,,< 1e-05,,< 1e-05,
A42U A52C C67A,,< 1e-05,,,
A33C G40A C67G,< 1e-05,,,,
G35C A53G,,< 1e-05,< 1e-05,< 1e-05,< 1e-05
U47C G59A,,< 1e-05,,,

Variant,self-cleavage kobs at 40 uM GlcN6P (glucosamine-6-phosphate [1]) [s⁻¹],self-cleavage kobs at 160 uM GlcN6P (glucosamine-6-phosphate [2]) [s⁻¹],self-cleavage kobs at 640 uM GlcN6P (glucosamine-6-phosphate [3]) [s⁻¹],self-cleavage kobs at 2500 uM GlcN6P (glucosamine-6-phosphate [4]) [s⁻¹],self-cleavage kobs at 10000 uM GlcN6P (glucosamine-6-phosphate [5]) [s⁻¹]
C16G A36U,,< 1e-05,< 1e-05,< 1e-05,
G13U G32A C50U,< 1e-05,,,< 1e-05,< 1e-05
G35C G66A,< 1e-05,,,< 1e-05,< 1e-05
G9U G38A,,< 1e-05,< 1e-05,,
C10A A52C,< 1e-05,,< 1e-05,< 1e-05,< 1e-05
U30A A39G A48G C61U,,< 1e-05,,< 1e-05,
G38A A39U,,< 1e-05,< 1e-05,,
G35U A53C,,< 1e-05,,< 1e-05,< 1e-05
G37U G41C C70U,< 1e-05,,,,
A39C A48U G59U,< 1e-05,,,,< 1e-05
A42G G63A U69G,< 1e-05,,,,< 1e-05
G7A G29C,< 1e-05,,,< 1e-05,
C11G G13U U45C,,< 1e-05,,,
G59U C61A,< 1e-05,< 1e-05,< 1e-05,,< 1e-05
A28G U30G C67U C71U,,4.89e-05 ± 2e-05,7.62e-05 ± 1.3e-05,0.000204 ± 5.3e-05,
U31G G51C U57C,,< 1e-05,< 1e-05,< 1e-05,
C34U G37U,,< 1e-05,< 1e-05,< 1e-05,< 1e-05
C11G U46G G62A,,< 1e-05,< 1e-05,< 1e-05,< 1e-05
A36G G60C,,< 1e-05,< 1e-05,< 1e-05,< 1e-05
A6C C8A C67A,,< 1e-05,< 1e-05,< 1e-05,< 1e-05
A12C G37U C50G U54G,,4.97e-05 ± 2.2e-05,,9.24e-05 ± 3.8e-05,
C16G G44C,,< 1e-05,< 1e-05,,
G7U G9U,< 1e-05,< 1e-05,< 1e-05,< 1e-05,< 1e-05
